From US20040235749A1 (HOSPITAL SAINTE JUSTINE, published 2004) come the findings set out here.

Non-standard residues stand in square brackets, D forms with d. No end group written: not given here. dCha = N[C@H](CC1CCCCC1)C(=O)O

B1: SEQ ID NO:79 (peptide)
peptide: [dV][dI][dR][dA][dT][dR][dP][dA][dL]
B2: SEQ ID NO:85 (peptide)
peptide: [dL][dV][dP][dV][dS]G[dK][dE][dY]
B3: PCP-13.13 (peptide)
peptide: [dI][dL]G[dH][dK][dD][dY][dK]
B4: PCP-8 (peptide)
peptide: ILGHRDYK
B5: PCP-15 (peptide)
peptide: [dS][dN][dV][dL][dC][dS][dI][dF]
B6: PCP-13.18 (peptide)
peptide: [dI][dL]G[dH][dQ][dD][dY][dK]
B7: PCP-13 (peptide)
peptide: [dI][dL]G[dH][dR][dD][dY][dK]
B8: PCP-13.20 (peptide)
peptide: [dI][dL]G[dH][dR][dD][dY]-NH2
modifications: N-terminus assumed
SMILES: CC[C@@H](C)[C@@H](N)C(=O)N[C@H](CC(C)C)C(=O)NCC(=O)N[C@H](Cc1c[nH]cn1)C(=O)N[C@H](CCCNC(=N)N)C(=O)N[C@H](CC(=O)O)C(=O)N[C@H](Cc1ccc(O)cc1)C(N)=O
B9: PCP-13.24 (peptide)
peptide: [dI][dL]G[dCha][dR][dD][dY][dK]
B10: PCP-13.7 (peptide)
peptide: [dI][dL][dA][dH][dR][dD][dY][dK]
B11: PCP-13.22 (peptide)
peptide: [dI][dL]G[dW][dR][dD][dY][dK]
B12: PCP-13.21 (peptide)
peptide: [dI][dL]G[dH][dR][dD][dY][dK]-NH2
modifications: N-terminus assumed
SMILES: CC[C@@H](C)[C@@H](N)C(=O)N[C@H](CC(C)C)C(=O)NCC(=O)N[C@H](Cc1c[nH]cn1)C(=O)N[C@H](CCCNC(=N)N)C(=O)N[C@H](CC(=O)O)C(=O)N[C@H](Cc1ccc(O)cc1)C(=O)N[C@H](CCCCN)C(N)=O
B13: PCP-13.11 (peptide)
peptide: [dI][dL]G[dF][dR][dD][dY][dK]
B14: PCP-13.8 (peptide)
peptide: [dI][dL]A[dH][dR][dD][dY][dK]
B15: PCP-10 (peptide)
peptide: WEDRFYLL
B16: PCP-14 (peptide)
peptide: [dY][dQ][dD][dR][dF][dY][dL][dL]

In one experiment the target is Urotensin receptor (GPR14) in porcine tissue (retinal microvessels, aortic strips) (pig). The experiment can be described thus: cell-based or functional assay.
Consider B1, for which the “IC50, U-II (1 µM) mediated contractility of retinal microvessels” value was 115 nM.

The target in another experiment is PAF receptor in porcine retinal microvessels (pig, UniProt Q9XSD4 1-342). The experiment can be described thus: cell-based or functional assay.
Chain of PAF receptor in porcine retinal microvessels (Q9XSD4 whole entry): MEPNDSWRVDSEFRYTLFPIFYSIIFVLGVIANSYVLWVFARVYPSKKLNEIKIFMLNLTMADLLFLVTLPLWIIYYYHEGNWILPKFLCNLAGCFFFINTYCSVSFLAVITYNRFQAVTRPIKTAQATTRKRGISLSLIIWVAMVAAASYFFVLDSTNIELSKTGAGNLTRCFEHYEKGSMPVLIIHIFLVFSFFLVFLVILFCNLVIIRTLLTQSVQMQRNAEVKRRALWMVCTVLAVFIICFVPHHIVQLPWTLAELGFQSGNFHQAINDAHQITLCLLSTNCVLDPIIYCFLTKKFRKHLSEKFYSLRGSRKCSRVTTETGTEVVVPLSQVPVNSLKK
B2: the “IC50, C-PAF induced retinal vasomotor responses, porcine eyecup” value was 134 nM.

The next experiment deals with FP receptor in porcine tissue (retinal microvessels, uterine myometrium) (pig). The experiment can be described thus: cell-based or functional assay.
On to B3, for which the “% Inhibition of Maximal Response, 100 µM peptide, 10^-7 M PGF2α, porcine eyecup” value (“% Inhibition of Maximal Response” for short) turned out to be 63.1% and the “% Vasomotor Response (of maximum constriction), 100 µM peptide, 10^-7 M PGF2α, porcine eyecup” value (shortened to “% Vasomotor Response”) was 36.9%.
B4: the “% Inhibition of Maximal Response” value was 50% and the “% Vasomotor Response” value was 50%.
Take B5: the “% Inhibition of Maximal Response” value is 88.1% and the “% Vasomotor Response” value was 11.9%.
On the same counts, the results for B6 are 70% and 30%.
On the same counts, the results for B7 are 80% and 20%.
Regarding B8, the “% Inhibition of Maximal Response” value turned out to be 50.4% and the “% Vasomotor Response” value was found to be 49.6%.
In the same order, the values of B9 are 93.8% and 6.2%.
On the same counts, the results for B10 are 76.2% and 23.8%.
In the same order, the values of B11 are 83.4% and 16.6%.
Take B12: the “% Inhibition of Maximal Response” value amounted to 53.8% and the “% Vasomotor Response” value is 46.2%.
On to B13, for which the “% Inhibition of Maximal Response” value is 87% and the “% Vasomotor Response” value worked out at 13%.
In the same order, the values of B14 are 53.2% and 46.8%.
As to B15, the “% Inhibition of Maximal Response” value is 80% and the “% Vasomotor Response” value was 20%.
On the same counts, the results for B16 are 64% and 36%.
